In PMC3302219:

Assays:
Assay in all cases: FRET or BRET
Settings in all cases: remark: other sources report otherwise
[1] = biological target: T1, CXCR4 fused to CFP (CXCR4-C) or to YFP (CXCR4-Y) (human), P61073
T1 chain: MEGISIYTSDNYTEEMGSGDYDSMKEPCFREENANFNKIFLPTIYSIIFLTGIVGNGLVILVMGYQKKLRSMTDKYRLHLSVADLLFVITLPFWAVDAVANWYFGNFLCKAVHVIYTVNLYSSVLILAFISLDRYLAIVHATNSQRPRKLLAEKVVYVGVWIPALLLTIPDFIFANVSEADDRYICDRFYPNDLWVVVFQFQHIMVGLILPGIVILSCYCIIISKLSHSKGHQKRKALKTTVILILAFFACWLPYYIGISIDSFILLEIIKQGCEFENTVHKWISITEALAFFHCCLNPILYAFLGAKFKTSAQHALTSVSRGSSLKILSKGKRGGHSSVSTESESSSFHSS

[2] = biological target: T1, CXCR4 fused to CFP (CXCR4-C) or to YFP …
[3] = biological target: T1, CXCR4 fused to CFP (CXCR4-C) or to YFP …

B1: CXCR4 fused to CFP (CXCR4-C) or to YFP (CXCR4-Y), P61073 1-352 (receptor)
chain: T1 chain
- FRET50 [1]: 1.27
- FRET50 [2]: 1.61
- FRET50 [3]: 1.55
